In US20120244144A1 (University of Texas, published 2012):

Tests used:
PTx-S1-220 Y161A = target: T1, PTx-S1-220 Y161A (Bordetella pertussis strain Tohama I, UniProt P04977 36-255, Y161A); assay: SPR, mAb 1B7 immobilised ~1000 RU
T1 sequence: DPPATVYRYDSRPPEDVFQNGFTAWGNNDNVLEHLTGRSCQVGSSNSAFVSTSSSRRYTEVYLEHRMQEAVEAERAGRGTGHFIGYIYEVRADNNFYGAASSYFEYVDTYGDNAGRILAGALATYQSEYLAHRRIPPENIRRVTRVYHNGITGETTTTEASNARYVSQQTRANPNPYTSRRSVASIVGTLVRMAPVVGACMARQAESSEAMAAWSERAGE

[1] = target: T2, PTx-S1-220, truncated recombinant S1 subunit (residues 1-220) (Bordetella pertussis strain Tohama I), P04977; assay: SPR; value for truncated PTx-S1-220 differs from Table 1; conditions: remark: other sources report otherwise
PTx-S1-220 Y8A = target: T3, PTx-S1-220 Y8A (Bordetella pertussis strain Tohama I, UniProt P04977 36-255, Y8A); assay: Western blot (text: 1B7 was unable to bind Y8A)
T3 sequence: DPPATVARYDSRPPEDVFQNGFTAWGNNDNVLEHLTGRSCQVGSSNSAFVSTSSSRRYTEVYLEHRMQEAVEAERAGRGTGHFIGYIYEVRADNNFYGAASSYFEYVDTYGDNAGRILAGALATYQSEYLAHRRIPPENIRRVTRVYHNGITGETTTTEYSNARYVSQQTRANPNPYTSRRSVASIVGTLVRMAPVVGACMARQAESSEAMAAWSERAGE

PTx-S1D (1-220) = target: T4, PTx-S1D (1-220) (Bordetella pertussis, UniProt P04977 35-254); assay: SPR BIAcore 3000, mAb 1B7 immobilised ~1000 RU
T4 chain: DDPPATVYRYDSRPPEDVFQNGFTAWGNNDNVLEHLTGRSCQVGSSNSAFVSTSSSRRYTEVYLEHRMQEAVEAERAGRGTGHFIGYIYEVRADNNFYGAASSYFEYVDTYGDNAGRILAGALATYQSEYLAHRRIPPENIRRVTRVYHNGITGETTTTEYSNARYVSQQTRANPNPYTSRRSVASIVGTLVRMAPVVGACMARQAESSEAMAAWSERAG

PTx-S1 9K/129G (1-220) = target: T5, PTx-S1 9K/129G (1-220) (Bordetella pertussis, UniProt P04977 36-255, R9K; E129G); assay: SPR BIAcore 3000, mAb 1B7 immobilised ~1000 RU
T5 construct: also called R9K, E129G variant
T5 sequence: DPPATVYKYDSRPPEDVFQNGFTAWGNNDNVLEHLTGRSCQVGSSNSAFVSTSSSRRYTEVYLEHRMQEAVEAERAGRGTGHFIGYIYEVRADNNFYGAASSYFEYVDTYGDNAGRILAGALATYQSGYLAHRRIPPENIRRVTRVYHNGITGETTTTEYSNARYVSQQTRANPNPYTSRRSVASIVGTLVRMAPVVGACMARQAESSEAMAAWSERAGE

PTx-S1A (1-220) = target: T6, PTx-S1A (1-220) (Bordetella pertussis, UniProt P04977 36-255, M194I); assay: SPR BIAcore 3000, mAb 1B7 immobilised ~1000 RU
T6 sequence: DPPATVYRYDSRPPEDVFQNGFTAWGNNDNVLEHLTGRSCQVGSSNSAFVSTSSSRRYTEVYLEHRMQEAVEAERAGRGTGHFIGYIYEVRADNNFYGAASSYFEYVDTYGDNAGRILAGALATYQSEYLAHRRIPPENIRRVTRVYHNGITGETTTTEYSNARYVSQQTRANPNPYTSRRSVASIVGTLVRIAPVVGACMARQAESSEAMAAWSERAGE

[2] = target: T2, PTx-S1-220, truncated recombinant S1 …; assay: SPR, mAb 1B7 immobilised ~1000 RU; conditions: remark: other sources report otherwise

B1: monoclonal antibody 1B7 (antibody)
chain: DIQMTQSPALMSASPGEKVTMTCSASSSVSFMYWYQQKPRSSPKPWIYLTSNLPSGVPARFSGSGSGTSYSLTISSMEAEDAATYYCQQWSSHPPTFGSGTKLEIKRGGGGSGGGGSGGGGSGGGGSEVQLQQSGSELVRPGASVKLSCKASGYKFTSYWMHWVKQRPGQGLEWIGNIFPGSGSTNYDEKFNSKATLTVDTSSNTAYMQLSSLTSEDSAVYYCTRWLSGAYFDYWGQGTTLTVSSASGA
notes: also called mAb 1B7; 1B7 mAb
**Q.** Which results are given for B1?
**A.** koff (PTx-S1-220 Y161A): 0.0013 s⁻¹; koff [1]: 0.0014 s⁻¹; binding result (PTx-S1-220 Y8A): no binding; koff (PTx-S1D (1-220)): 0.00095 s⁻¹; koff (PTx-S1 9K/129G (1-220)): 0.0016 s⁻¹; koff (PTx-S1A (1-220)): 0.00071 s⁻¹; koff [2]: 0.0014 s⁻¹
